Test results: the nanobody polyreactivity screen of Harvey et al. (2022)

Experiment: yeast display, Sf9 membrane polyspecificity reagent, FACS + sequencing; frameworks hold sequencing errors
Method in brief: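 Genes from sorted yeast were amplified by colony PCR, read by MiSeq 2 × 250 sequencing and filtered on CDR length. These cells carried a synthetic nanobody library in Saccharomyces cerevisiae BJ5465 and were sorted by FACS into low and high (top ~1%) gates on anti-HA and streptavidin fluorescence. Polyreactivity is labelled according to the gate of origin.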

Sequence	polyreactivity (PSR sort gate)
QVQLVESGGGLVQAGGSLRLTCAASGNTFYPYAMGWYRQGPGKERELVAAITSSGGSTYYADSVKGRFTISRDNANNTVYLQMNSLKPEDTAVYYCAADPDWYSPFKYVYWGQGTQVTVSS	low polyreactivity
QAQLVESGGGLVQAGRSLRLSCAASGSTFRWYAMGWYRQAPGKERELVAAITSSGSTYYADSVKGRFTISRDNAKTTVYLQMNSLKPEDTAVYYCAARANGYWNTYEHDYWGQGIQVTVSS	low polyreactivity
QVQLVESGGGLVQAGGSLRLSSPASGSIFITYAMGWYRQAPGKESELVAAIRDSGDRTYYADSVKGRFTISRDNAKKTVYFQMNSLKPEDTAVYYCNARWQEPLKYDYWGQGTQVTVSS	low polyreactivity
QVQLVESGGGLVQAGGSLRLSCAASGLTFDYYAMGWYRQAPGKERELVAAIDWSGGSTYYADSVKGRFTISRDNAKNTVYLQMNSLKPEDSAVYYCATESDDSGMDYWGQGTQVTVSS	low polyreactivity
QVQLVESGGGLVQAGGSLRLSCAASGSTFGINAMGWYRQAPGKERELVASITRRGGSTYYADSVKGRFTISRDNAKNTVYLRMNSLKPEDTAVYYCNKTYRYGTPLYDYWGQGTQVTVSS	high polyreactivity
QVQLVESGGGLVQAGGSLRLTCAASGRIFGLYAMGWSRQAPGKERELVAAISVISTGTYYADSVKGRFTISRDNAKNTVYLQMNSLKPEDTAVYYCNADSGQYTPPESDYWGQGTQVTVSS	low polyreactivity
QVQLQERGGGLVQAGGSLRLSCAASGSIFHYTQMGWYLQAPGKEREFVAAITDGANTNYADSVKGRFTISRDNAKNTVNLQMNSLIPEDTAVFYCATDYGYTDRVTSGFDYWGQGTQVTVSS	low polyreactivity
QVQLVESGGGLVQAGGSLRLSCAASGSTFLFYAMGWYRQAPGKEREFVDAISWSGGSTFYADSVKGRFTISRYNAKNTVYLQMNSLKPEDTAVYYCAARQDGYSGRKLYYLGQGTQVTVSS	low polyreactivity
QVQLLESGGGLVQAGGRLRLSCADSGGIIAYNAIGWYRQAPAKERELVAAISSSGGRTYYADSVKGRFTISRDNAKITVYLQMNSLKPEDTAVYYFAAVRSGIEYGYWGQGTQVTVSS	high polyreactivity
QVQLVESGGGLVQAGGSIRLSCAASGRIFAYNPMGWSRQAPGKERELVAVITSGRSTNYADSVKGRFTISRDNEKNNVYLQMNSLKPVDTAFYYCAKRPYGRSGGSRYDYWGQGTQGTVSS	high polyreactivity
QVQLVESGGGLVQAGGSLRLSCAASGRIFSVYAMGWYRQAPGKERELVAAITRVGSTNYADSVKGRFTISRDNAKNTVYLQMNSLKPEDTAVYYCAAVARTVPSYSYNYWGQGTQVTVSS	high polyreactivity
QVQLVESGVGLVQAGGSLRLSCAASGRTFFNYVMGWYRPAPGKERELVAAISRSGGSTYYADSVKGRFTLSRDNAKNTVYLQMNSLKPEDTAVYYCAADKYYEYYWGQATQVTVSS	high polyreactivity
QVQLVESGGGLVQAGGSLRLSCAASGSIFGTNAMGWYRQAPGKERELVAAINSGGSTNYADSVKGRFTISRDNAKNTVYLQMNSLKPEDTAVYYCAADEGLWSPSRNAYDYDYWGQGTQVSVSS	low polyreactivity
QVQLVESGGGLVQAGGSLRLSCAASGSIFPANAMGWYRQAPGKERELVAAISRRGGNTNYADSVKGRFTISRDNAKNTVYLQMNSLKPEDTAVYYCAAYYYYRRYDYWGQGTQVTVSS	high polyreactivity
QVQLVESGGGLVQAGGSLRLSSAASGRIFYYNAMGWYSQAPGKERELVAAITRGGSTYYADSVKGRFTISRDNAKNTVYLQMNSLKPEDTAVYYCAAYLDYWSYLNGQYDYWGQGTQVTVSS	high polyreactivity
QVQLVESGGGLVQAGGSLRLSCAASGSIISYYAMGWYRQAPGKERELVAAITASGGSTYYADSVKGRFTISRDNAKNTVYLQMNSLKPEDTAVYYCAAGTHTDYGRYYYWGQGTQVTVSS	low polyreactivity
QVQLVESGRGLLQAGGSLRLSCASSGGIFPKYAMGWYRQAPGKEREFVASISYRGGSTYYADSVKGRFTISRDNAKNTVYFQMNSLKPDDTAVFYCAKPTYRFYWGDFDYWGQGSQVTVSS	low polyreactivity
QVQLVESGGGLVQAGGSLRLSCAASGSIFAYNAMGWYIQSPGTERELVAAISSSGGSTTYADSVKGRFTISRDNAKYTVYLQMNSLKPEDTAVYYCNAAWRRSRYYYWGQGTQVTVSS	high polyreactivity
QVQLVESGGGLVQAGGSLRLSCAASGSTFKVYTMGWYRPAPGKERELVAAISGGGGSTYYADSVKGRFTISRDNAKNTVYLQMNSLNPEDTAVYYCAAQKRGPGYPYYYWGQGTQVTVSS	high polyreactivity
QDQLVDSGGGLVKAGGNLRLSCPASGSTFDYNTMGWNIQEPGKESEMVAVITASGGSTYYADSVKGRFTISRDNAKNTVYLQMNSLKPEDTAVYYCAKDLYVSYYIGTCYYYWGQGTQVTVSS	low polyreactivity
QVQLVESGGGLVQAGGSLRLSCAASGRTFYRNAMGWYRQAPGKERELVAAISQRGGRTYYADSVKGRFTISRDNAKNSVYLQMNSLKPEDTAVYYCAASPIYPVYRRHGYWGQGTQVTVSS	high polyreactivity
QVQLVESGGGLVQAGGSLRLSCAASGSIFDYYAMGWYRQAPGKERELVAAISWSGGSTYYADSVKGRFTISRDNAKNTVYLQMNSLKPEDTAVYYCAALSLAYHEYDYWGLGTQVTVSS	high polyreactivity

Sequence	polyreactivity (PSR sort gate)
QVQLVESGGGLVQAGGSLRLSCDASGSISVVNMGWYRQAPGKERELVASNTSSGSTTYADSVKGRFTISRDKAKNTVYLQMNRLKPEDTAVYYCAADVGTDYTYQHPAGAAYDYCGQGTQVTVSS	low polyreactivity
QVQLVESGGGLVQAGGSLRLTCAASGFTFSPNAMGWYRQAPGKERELVAAIDWSGDRTYYADSVKGRFTISRDNAKNTVYLQMNSLKPEDTAVYYCNVVGRSPGDYSYYYSGQGTQVTVSS	low polyreactivity
QVQLVESGGGLVQAGGSLRLSCAASGSIFLEYTMGWYRQAPGKERELVASISWGGGSTYYADSVKGRFTISRDNAKNTVFLQMNSLKPEDTAVYYCNKVGGDPVRGGYDYWGQGTQVTVSS	low polyreactivity
QVQLVESGGGLVQAGGSLRLSCAASGSTFYLYTMGWYRLAPGKERELVAAISVSGGSTFYADSVKGRFSISRDNAKNTVYLQKNSLKPEDTAVYYSAADGYLHAGHWRTYGYYYWGQGTQVTVSS	low polyreactivity
QVQLVESGGGLVQAGGSLRLSCAASGSIFGYYAMGWYRQAPGKERELVAAITTRGGRTYYADSVKGRFTISRDNAKNTVYLQMNSLKPEDTAVYYCAARTGRGRYDYWGQGTQVTVSS	high polyreactivity
QVKLVESGGGLVQAGGSLRLSCAASGRTFYIYAMGWYRQAPGKERELVAAITYGGGRTFYADSVKGRFTISRDNAKNTVYLQMNSRKPEDTAVYYCAATVRGKRSTYDYWGQGTQVTVSS	high polyreactivity
QVQLVESGGGLVQAGGSLRVSCAASGSTFVRNAMGGYRQAPGKETELVAFISTSGTRTHYADSVKGRFTISRDNAKNTVYFQMNSLKPEDTAVYYCNRRVYGIVTRDYWGQGTQVTVSS	high polyreactivity
QVQLVESGGGLVQAGGSLRLSCAASGIIFAYNAMGWYRQAPGKEWELVAGITRNDGSTNYADSVKGRFTISRYNAMNTVYLQMNSLKPEDTAVYYCATGGWRWQRNPSYDYWGQGNQVTVSS	low polyreactivity
QVQLVESGGGLVQAGGSLRLSCAASGRTSKVYAMGWYRQAPGKERELVARITSSGVRTYYADSVKGRFTISRDNAKNTVYLQMNSLKPEDTAVYYCAKDARALWLHSGIYDYWGQGTQVTVSS	low polyreactivity
QVQLVESGGGLVQAGGSLRFSCAASGRTFNWYAMGWYRQAPGKERELVAAISSRGGSTYADSVKGRFTISRDNAKNTVYLQMNSLKPEDTAVYYCAARHHGTKYDYWGQGTQVTVSS	low polyreactivity
QVQLVESGGGLVQAGGSLRLSCAASGFTFPSYAMGWYRQAPGKERELVAAISSRGGSTYYADSVKGRFTISRDNAKNTVYLQMNSLKPEDTAVYYCNRLQVYSYYPYYPWYNYWGQGTQVTVSS	high polyreactivity
QVQLVDSGGGLVQAGGSLRLSCAASGFTIPTYAMGWYRQAPGKERELVAAISGDGDSTYYADSVKGRFTISRDNAKNTVYLQMNSLKPEDTAVYYCAAEPNVYFSVFVLFPSDYWGQGTQVTVSS	low polyreactivity
QVQLVESGGGLVQAGGSLRLSCAASGITFYGNAMGWYRQAPGKERELVATISRSDGRTYYADSVKGRFTISRDNANNTVYLQMNSLKPEDTAVYYCAAYTTRPYWGQGTQVTVSS	high polyreactivity
QVQLVESGGGLVQAGGSLRLSCAASGRIFTYAMGWYRQAPGKERELVAAISRRGGSTYYADSVKGRFTISRDNAKNTVYLQMNSLKPEDTAVYYCAKERSFGDGNFDYEYWGQGTQVTVSS	high polyreactivity
QVQLVESGGGLVQAGGSLRLSCAASGFTFDWYAMGWYRQAPGKERELVAAISSGGNTKYADSVKGRFTISRDNAKNTVYLQMNSLKPEDTAVYYCAARLYYSLSYYYWGQGTQVTVSS	high polyreactivity
QLQLVESGGGLVQAGGSLRLSCAASGGIFPYYAMGWYRQAPGKEMELVAAISRSGGITYYADSVKGRFTISRDNAKNTVYLQMNSLKPEDTAVYYCAALSRWRYKRYDYWGQGTQVTVSS	high polyreactivity
QVQLVESGGGLVQAGGSLRLSCAASGSTYSYYAMGWYRQAPGKERELVAAITSSGSSTYYADSVKARFTISRDNAKNTVYLPMISLKPEDPAVYYCAAGRYRYTYRYFTAWYGYWGQGTQVTVSS	high polyreactivity
QVQLVESGGGLVQAGGSLRLSCAASGRIFSGYVMGWYRQPPGKERELVAAISRSGGSTYYADSVKGRFTISRDNAKNTVYLQMNSLKPEDTAVYYCNADWYKRHYDYWGQGTQVTVSS	high polyreactivity
QVQLVESGGGLVQAGGSLRLSCAASGSTFRRNTMGWYTQAPGKERELVAGISSSGGSTYYADSVKGRFTISRDNAKNTVYLQMNSLNPEDTAVYYCDARFYVSYVGYNYWGHGTQVTVSS	high polyreactivity
QVQLQESGGGLVQAGGSLRLTCAASGSISRLDYMGWYRQASGKERELVAAIDNGSTTYYADSVKGRLTISRDNAKYTVYLQMNSLKPEDTAVYFCAAVRGRGGTHAYWGQGTQVTVSG	low polyreactivity
QVQLVESGGGLVQAGGSLRLSCAASGIIFFANAMGWYRQAPGKERELVASISASGGNTYYADSVKGRFTISRDNAKNTVYLQMNSLKPEDTAVYYCAARARRSQSISLKYYYWGQGTQVTVSS	high polyreactivity
